The text below walks through data of publication PMC3892959.

One data set concerns the target T1, rhVEGF165 (recombinant human vascular endothelial growth factor 165) (human, UniProt P15692-4 27-191). Briefly: fluorescence polarization. On the technique in general: Polarisation of emitted light reports the rotation of a fluorescent probe.
Regarding ATTCTGGGGAGTGGTACGTAAGCAGTGCCACCACGGTTAT (ssDNA) [R 2], the dissociation constant (Kd) was 88 nM.
Turning to GTCTGTACCAATCTAAAAGTGTATATTATATCTACGAGCCT (ssDNA) [R 1], the Kd was 100 nM.
Same read-out and setting: the result for CCTTGTCATGATAGCTATGTTTCAGCCAACCATACCCGCT (ssDNA) [R 3] reads 46 nM; that for GGAAGCCCGCTGTGACATCTGGAGCCGGTTCCCGAGCCA (ssDNA) [C 1], 101 nM; that for CGAGGATATCCGATTGTGGGTGACGTATTGGACACCTTCCCG (ssDNA) [C 2], 162 nM.
Still for that read-out and setting: next, TGGCTGTTATTTCTCTCGGCCTCAGATCTTGGGCCCAACA (ssDNA) [C 3]: 164 nM.

The target in the next data set is T1, rhVEGF165 (recombinant human vascular …). As to the kind of experiment: affinity capillary electrophoresis.
As for ATTCTGGGGAGTGGTACGTAAGCAGTGCCACCACGGTTAT (ssDNA) [R 2], the Kd amounted to 72 nM.
On the same count and under the same terms, the result for GTCTGTACCAATCTAAAAGTGTATATTATATCTACGAGCCT (ssDNA) [R 1] reads 53 nM.
Still for that read-out and setting: next, CCTTGTCATGATAGCTATGTTTCAGCCAACCATACCCGCT (ssDNA) [R 3]: 22 nM; GGAAGCCCGCTGTGACATCTGGAGCCGGTTCCCGAGCCA (ssDNA) [C 1]: 49 nM; CGAGGATATCCGATTGTGGGTGACGTATTGGACACCTTCCCG (ssDNA) [C 2]: 21 nM.
Still for that read-out and setting: the result for TGGCTGTTATTTCTCTCGGCCTCAGATCTTGGGCCCAACA (ssDNA) [C 3] reads 66 nM.

One may read the Kd as the constant that tells how readily two partners part at equilibrium.
